Test results as given in US7176178 (HANSA MEDICAL, dated 2007).

T1: protein H (COOH-terminally truncated fragment expressed by and purified from E. coli) (Streptococcus pyogenes, UniProt P50470 42-346)
T1 construct: also called recombinant protein H; soluble protein H
T1 sequence: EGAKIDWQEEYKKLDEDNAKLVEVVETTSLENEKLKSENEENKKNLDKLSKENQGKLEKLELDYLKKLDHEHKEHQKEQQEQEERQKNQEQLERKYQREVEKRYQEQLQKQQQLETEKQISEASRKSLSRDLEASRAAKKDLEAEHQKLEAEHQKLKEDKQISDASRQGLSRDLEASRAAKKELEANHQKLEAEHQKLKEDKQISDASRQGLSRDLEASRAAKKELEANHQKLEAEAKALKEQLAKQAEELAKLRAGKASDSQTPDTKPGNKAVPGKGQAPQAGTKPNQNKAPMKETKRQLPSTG

B1: COOH-terminal fragment of NPM, in vitro translated (peptide)
chain: KVPQKKVKLAADEDDDDDDEEDDDEDDDDDDFDDEEAEEKAPVKKSIRDTPAKNAQKSNQNGKDSKPSSTPRSKGQESFKKQEKTPKTPKGPSSVEDIKAKMQASIEKGGSLPKVEAKFINYVKNCFRMTDQEAIQDLWQWRKSL
notes: domain: COOH-terminal half; also called COOH-terminal peptide; COOH-terminal half of NPM

What was measured:
[1] = target: nucleophosmin/B23 (NPM), papain-released material from Jurkat membrane preparations (Mono-Q pool 85-87) (human) (UniProt P06748); experiment: competitive inhibition of the binding of 125I-labelled NPM to protein H-Sepharose by unlabeled fragment AB
[2] = target: T1, protein H (COOH-terminally truncated …); experiment: 35S-labelled in vitro translated peptide applied to protein H-Sepharose, KSCN eluate on SDS-PAGE, autoradiography

Chain of nucleophosmin/B23 (NPM), papain-released material from Jurkat membrane preparations (Mono-Q pool 85-87) (human) (P06748 1-149 limits assumed): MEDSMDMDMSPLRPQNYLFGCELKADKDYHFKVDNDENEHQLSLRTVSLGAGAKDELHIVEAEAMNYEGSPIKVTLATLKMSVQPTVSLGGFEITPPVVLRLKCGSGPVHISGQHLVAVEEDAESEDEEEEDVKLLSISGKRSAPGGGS

Molecule | IC50 (read off the curve) [1] [pmol] | binding result [2]
fragment AB of protein H (peptide) | 100 | 
B1 |  | no binding
